These results are taken from US20250376511A1 (Sanofi, published 2025).

By Kd is commonly meant the concentration at which binding is half-saturated. Broadly, the koff is a measure of how fast the partners let go of each other. A low value points to slow dissociation. A word on the kon: it is the second-order rate constant of association. A low value points to slower complex formation.

Assay [1] has as its target T1, Human active C1s (Complement Technology) (human, UniProt P09871 16-688).
T1 sequence: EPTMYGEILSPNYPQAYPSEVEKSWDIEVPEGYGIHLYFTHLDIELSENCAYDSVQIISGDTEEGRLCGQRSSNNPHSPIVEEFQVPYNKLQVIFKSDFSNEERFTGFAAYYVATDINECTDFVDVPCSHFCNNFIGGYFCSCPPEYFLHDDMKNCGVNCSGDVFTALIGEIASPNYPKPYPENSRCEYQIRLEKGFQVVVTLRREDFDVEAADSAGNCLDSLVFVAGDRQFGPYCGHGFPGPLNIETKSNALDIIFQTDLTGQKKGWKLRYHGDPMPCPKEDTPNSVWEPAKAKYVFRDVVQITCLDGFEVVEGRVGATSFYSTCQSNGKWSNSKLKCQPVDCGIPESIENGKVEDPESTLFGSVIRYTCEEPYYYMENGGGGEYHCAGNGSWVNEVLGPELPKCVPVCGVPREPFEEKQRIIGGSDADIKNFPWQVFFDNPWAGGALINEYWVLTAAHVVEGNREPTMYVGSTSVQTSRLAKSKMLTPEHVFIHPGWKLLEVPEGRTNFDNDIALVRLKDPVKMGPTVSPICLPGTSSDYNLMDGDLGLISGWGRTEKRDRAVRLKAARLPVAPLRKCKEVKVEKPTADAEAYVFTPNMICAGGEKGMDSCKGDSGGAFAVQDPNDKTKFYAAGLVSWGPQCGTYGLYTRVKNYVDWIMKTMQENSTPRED
As to the kind of experiment: cell-based or functional assay.

Assay [2] concerns the target T2, His-tagged recombinant human TfR (produced in-house) (human, UniProt P02786 89-760).
T2 construct: also called hTfR; transferrin receptor 1
As to the kind of experiment: affinity of bispecific purified from CHO cells (SPR; details not restated).

Assay [3] deals with T1, Human active C1s (Complement Technology). The assay is described as above.
Another assay addresses T3, cynomolgus TfR (cynomolgus, UniProt H9EXL1 89-760 (rhesus entry)).
T3 construct: also called Cyno TfR; cTfR
The description is as above.

The target of another assay is T4, cynomolgus aC1s (cynomolgus, UniProt A0A2K5VQX9 16-685).
T4 construct: also called Cyno aC1s; caC1s
T4 sequence: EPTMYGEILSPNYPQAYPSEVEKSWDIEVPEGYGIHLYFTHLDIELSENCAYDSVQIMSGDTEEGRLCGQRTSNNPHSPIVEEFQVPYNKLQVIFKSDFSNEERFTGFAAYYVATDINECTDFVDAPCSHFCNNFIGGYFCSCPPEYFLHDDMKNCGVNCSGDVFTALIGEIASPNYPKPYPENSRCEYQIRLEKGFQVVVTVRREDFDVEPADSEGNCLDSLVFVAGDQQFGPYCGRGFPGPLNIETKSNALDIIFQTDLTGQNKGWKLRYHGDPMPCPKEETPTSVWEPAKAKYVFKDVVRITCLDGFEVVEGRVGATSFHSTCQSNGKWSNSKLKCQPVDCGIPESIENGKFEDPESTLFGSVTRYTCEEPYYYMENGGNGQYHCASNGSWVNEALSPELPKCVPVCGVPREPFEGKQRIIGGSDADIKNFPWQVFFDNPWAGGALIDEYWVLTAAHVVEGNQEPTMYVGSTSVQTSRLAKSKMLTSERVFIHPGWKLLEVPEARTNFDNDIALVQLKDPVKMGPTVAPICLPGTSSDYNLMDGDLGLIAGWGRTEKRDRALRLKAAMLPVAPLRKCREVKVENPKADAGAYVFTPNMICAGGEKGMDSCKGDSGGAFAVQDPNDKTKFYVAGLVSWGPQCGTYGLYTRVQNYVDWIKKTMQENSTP
Described as above.

Assay [4] addresses T1, Human active C1s (Complement Technology). Put plainly: cell-based or functional assay. This is another data set of the same source.
For assay [5] the target is unchanged. As to the kind of experiment: cell-based or functional assay. The source holds these as a separate data set.
Assay [6] shares this target. Put plainly: SPRi Carterra LSA, antibody captured on protein A/G, human active C1s as analyte, 25 C, 1:1 fit. On the procedure: C1s binding using surface plasmon resonance (SPRi): Analysis of active C1s binding was performed on a Carterra LSA SPRi instrument at 25° C. Protein A/G (Sigma) diluted in 25 mM MES pH 6.0, 0.05% Tween-20 running buffer was covalently immobilized to an HC200M sensor chip using amine coupling. Antibodies were diluted to 0.2 μg/mL in HBS-EP+ buffer and printed in duplicate to the protein A/G surface in the capture 96-array format for 5 min followed by a 1 min baseline in buffer. Human active C1s (Complement Technology) was serially diluted […] from 1 μM to 0.781 nM in running buffer and injected over the captured antibodies for 5 min with a 5 min dissociation time. The surface was regenerated with 10 mM glycine pH 1.5 with two 30 sec injections. Sensorgrams were processed with the Carterra® K.I.T. Inspection Tool and fit to a 1:1 binding model to obtain kinetic constants.
Three variants were selected as viable engineered alternatives to the wild-type anti-aC1s sequence: D32E, D32S, and D32Y. The three variants were expressed as bivalent monospecific anti-aC1s antibodies with human IgG1 and their affinity for aC1s tested by surface plasmon resonance (Table 5).

Changes are numbered by the printed parent chain. Read-outs that look alike come from different tables or passages of the source.

T3 sequence (chain, as listed by the source): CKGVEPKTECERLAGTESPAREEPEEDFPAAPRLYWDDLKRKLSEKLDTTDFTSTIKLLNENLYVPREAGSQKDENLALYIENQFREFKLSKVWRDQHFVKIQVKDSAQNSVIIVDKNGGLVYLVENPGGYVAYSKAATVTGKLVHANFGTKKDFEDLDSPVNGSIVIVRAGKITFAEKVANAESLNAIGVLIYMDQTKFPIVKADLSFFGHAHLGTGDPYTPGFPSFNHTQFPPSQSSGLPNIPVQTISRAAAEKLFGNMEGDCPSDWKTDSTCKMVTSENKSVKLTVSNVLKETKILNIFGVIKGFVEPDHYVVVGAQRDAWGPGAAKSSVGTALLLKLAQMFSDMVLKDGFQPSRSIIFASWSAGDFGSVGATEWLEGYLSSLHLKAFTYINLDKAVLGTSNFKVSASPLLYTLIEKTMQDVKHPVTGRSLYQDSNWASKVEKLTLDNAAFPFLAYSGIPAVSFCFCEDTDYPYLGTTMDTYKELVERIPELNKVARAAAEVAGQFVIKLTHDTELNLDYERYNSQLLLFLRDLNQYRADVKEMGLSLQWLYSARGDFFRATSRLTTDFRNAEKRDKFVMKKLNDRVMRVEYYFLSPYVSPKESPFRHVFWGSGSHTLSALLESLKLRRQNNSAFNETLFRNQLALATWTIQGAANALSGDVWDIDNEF
T2 sequence (P02786 89-760 limits assumed): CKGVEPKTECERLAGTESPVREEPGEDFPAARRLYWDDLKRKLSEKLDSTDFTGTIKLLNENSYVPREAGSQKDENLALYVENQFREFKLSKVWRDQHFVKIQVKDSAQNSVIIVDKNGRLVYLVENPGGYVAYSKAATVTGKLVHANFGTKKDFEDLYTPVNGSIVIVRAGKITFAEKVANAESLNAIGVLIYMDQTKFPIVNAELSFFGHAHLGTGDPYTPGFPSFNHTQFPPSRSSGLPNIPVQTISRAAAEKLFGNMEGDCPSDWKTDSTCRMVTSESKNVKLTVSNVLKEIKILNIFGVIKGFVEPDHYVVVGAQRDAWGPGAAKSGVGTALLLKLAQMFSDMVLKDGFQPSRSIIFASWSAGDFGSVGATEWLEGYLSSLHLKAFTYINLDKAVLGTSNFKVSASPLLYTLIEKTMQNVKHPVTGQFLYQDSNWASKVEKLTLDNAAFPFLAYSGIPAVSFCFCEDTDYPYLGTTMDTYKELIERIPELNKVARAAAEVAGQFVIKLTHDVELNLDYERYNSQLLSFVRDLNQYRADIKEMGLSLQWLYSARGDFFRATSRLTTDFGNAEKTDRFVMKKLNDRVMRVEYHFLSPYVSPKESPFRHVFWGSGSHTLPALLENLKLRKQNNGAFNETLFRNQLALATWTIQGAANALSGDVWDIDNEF

B1: bispecific anti-aC1s (L4H5)/anti-TfR (531v25.v6) antibody (bispecific antibody, human IgG4 S228P, kappa)
heavy 1: QVQLVQSGAEVKKPGASVKLSCTASGFNIKDDYIHWVKEAPGQGLEWIGRIDPADGHTKYAPKFQVKVTITAATSTSTAYLQLSSLRSEDTAVYYCARYGYGREVFDYWGQGTTVTVSSASTKGPSVFPLAPCSRSTSESTAALGCLVKDYFPEPVTVSWNSGALTSGVHTFPAVLQSSGLYSLSSVVEVPSSSLGTKTYTCNVDHKPSNTKVDERVESDYGPPCPPCPAPEFEGGPSVFLFPPKPKDTLMISRTPEVTCVVVDVSQEDPEVQFNWYVDGVEVHNAKTKPREEQFNSTYRVVSVLTVLHQDWLNGKEYKCKVSNKGLPSSIEKTISKAKGQPREPQVCTLPPSQEEMTKNQVSLSCAVKGFYPSDIAVEWESNGQPENNYKTTPPVLDSDGSFFLVSRLTVDKSRWQEGNVFSCSVLHEALHSRFTQKSLSLSLG
light 1: DIVMTQSPDSLAVSLGERATISCKSSQSVDYEGDSYLNWYQKKPGQPPKLLIYDASNLESGVPDRFSGSGSGTDFTLTISSLQAEDVAVYYCQQSNEDPWTFGQGTKVEIKRTVAAPAVFIFPPSKKQLKSGTASVVCLLKNFYPREAKVQWKVDNALQSGNSQESVTEQDSKDSTYSLSSTLTLSKADYEKHKVYACEVTHQGLSSPVTKSFNRGEC
heavy 2: QVQLVQSGAEVKKPGASVKVSCKASGYTFTRYYLNWVRKAPGQGLEWIGMIDPSVSETHYAQKFQGRATLTVDKSTSTAYMELSSLRSEDTAVYYCSQIRLPYYYAMDSWGQGTTVTVSSASTKGPSVFPLAPCSRSTSESTAALGCLVKDYFPEPVTVSWNSGALTSGVHTFPAVLQSSGLYSLSSVVTVPSSSLGTKTYTCNVDHKPSNTKVDKRVESKYGPPCPPCPAPEFEGGPSVFLFPPKPKDTLMISRTPEVTCVVVDVSQEDPEVQFNWYVDGVEVHNAKTKPREEQFNSTYRVVSVLTVLHQDWLNGKEYKCKVSNKGLPSSIEKTISKAKGQPREPQVYTLPPCQEEMTKNQVSLWCLVKGFYPSDIAVEWESNGQPENNYKTTPPVLDSDGSFFLYSRLTVDKSRWQEGNVFSCSVLHEALHSHYTQKSLSLSLG
light 2: DIQMTQSPSSLSASVGDRVTITCRASQDIESFLNWYQEKPGKAPKLLIYYTSRLQSGVPSRFSGSGSGTDYTLTISSLQPEDFATYYCQQGNTLPRTFGGGTKVEIKRTVAAPSVFIFPPSDEQLKSGTASVVCLLNNFYPREAKVQWKVDNALQSGNSQESVTEQDSKDSTYSLSSTLTLSKADYEKHKVYACEVTHQGLSSPVTKSFNRGEC
notes: Purified from CHO cells; monovalent for aC1s
Take B1: the “IC50, Wieslab Complement Pathway Assay” value in assay [1] was found to be 1.04 µg/mL. Besides, the “IC90, Wieslab Complement Pathway Assay” value in assay [1] was determined as 7.55 µg/mL. Besides, the Kd in assay [2] was 39.3 nM; in assay [3] it was 2.26 nM; with cynomolgus TfR, 72.5 nM; with cynomolgus aC1s it was 0.252 nM.

B2: bispecific anti-aC1s (L2H5)/anti-TfR (531v25.v6) antibody (bispecific antibody, human IgG4 S228P, kappa)
heavy 1: B1 heavy 1
light 1: B1 light 1 with D74A
heavy 2: B1 heavy 2
light 2: B1 light 2
notes: as for B1
In the case of B2, the “IC50, Wieslab Complement Pathway Assay” value in assay [1] is 1.23 µg/mL. For the same molecule, the “IC90, Wieslab Complement Pathway Assay” value in assay [1] was found to be 9.7 µg/mL. The Kd in assay [2] stood at 34.3 nM; in assay [3], 2.64 nM; with cynomolgus TfR, 48.9 nM; in the assay with cynomolgus aC1s it was 0.315 nM.

B3: bispecific anti-aC1s (L2)/anti-TfR (531v25.v6) antibody (bispecific antibody, human IgG4 S228P, kappa)
heavy 1: B1 heavy 1 with A73D, Q82E
light 1: B1 light 1 with D74A
heavy 2: B1 heavy 2
light 2: B1 light 2
notes: as for B1
For B3, the “IC50, Wieslab Complement Pathway Assay” value in assay [1] was 1.37 µg/mL. Moreover, the “IC90, Wieslab Complement Pathway Assay” value in assay [1] amounted to 10.2 µg/mL. Further, the equilibrium dissociation constant (Kd) in assay [2] turned out to be 29.9 nM; in assay [3], 3.19 nM; with cynomolgus TfR, 52.8 nM; in the assay with cynomolgus aC1s, 0.243 nM.

B4: SAR445088 (antibody, V domains shown)
VH: QVQLVQSGAEVKKPGASVKLSCTASGFNIKDDYIHWVKQAPGQGLEWIGRIDPADGHTKYAPKFQVKVTITADTSTSTAYLELSSLRSEDTAVYYCARYGYGREVFDYWGQGTTVTVSS
VL: DIVLTQSPDSLAVSLGERATISCKASQSVDYDGDSYMNWYQQKPGQPPKILIYDASNLESGIPARFSGSGSGTDFTLTISSLEPEDFAIYYCQQSNEDPWTFGGGTKVEIK
modifications: sulfated tyrosine (Y36) on the light chain
notes: Bivalent monospecific anti-aC1s antibody; also called BIVV020; the wild-type antibody
As to B4, in assay [4], the “IC50, Wieslab Complement Pathway Assay (classical pathway, 1% NHS)” value (shortened to “IC50 … (classical pathway, 1% NHS)”) stood at 0.77 µg/mL. Besides, the “IC50 … (classical pathway, 1% NHS)” value in assay [5] worked out at 1.07 µg/mL. Moreover, in assay [1], the “IC50, Wieslab Complement Pathway Assay (batch 1)” value was 0.45 µg/mL and the “IC50, Wieslab Complement Pathway Assay (batch 2)” value amounted to 0.63 µg/mL. In assay [6], this molecule gave a dissociation constant (Kd) of 2.5 nM, a dissociation rate constant (koff) of 0.0033 s⁻¹ and an on-rate constant (kon) of 1.3e+06 M⁻¹ s⁻¹.

B5: aC1s_D32E IgG1-dK (antibody, V domains shown)
VH: B4 VH
VL: B4 VL with D32E
modifications: Y36 sulfation: Yes
With B5, in assay [5], the “IC50 … (classical pathway, 1% NHS)” value was 1.36 µg/mL. In addition, in assay [6], the equilibrium dissociation constant (Kd) is 2.5 nM, the koff turned out to be 0.0032 s⁻¹ and the kon was determined as 1.3e+06 M⁻¹ s⁻¹.

B6: aC1s_D32S IgG1-dK (antibody, V domains shown)
VH: B4 VH
VL: B4 VL with D32S
notes: Bivalent monospecific human IgG1
For the molecule B6, the “IC50 … (classical pathway, 1% NHS)” value in assay [5] came to 10.7 µg/mL. In assay [6], this molecule returned an equilibrium dissociation constant (Kd) of 7.3 nM, a dissociation rate constant (koff) of 0.0065 s⁻¹ and a kon of 890000 M⁻¹ s⁻¹.
